In assay [1] the target is T1, human ATP6V1B2 on the surface of senescent human cells (IMR-90 lung fibroblasts, IPF lung fibroblasts, A549 … (human, UniProt P21281 1-511)).
T1 construct: whole, on cells; Endogenous protein on cells; also called surface ATP6V1B2; surface protein expressed in senescent human lung fibroblasts
Description: FACS, non-permeabilized senescent IMR-90 cells, antibody at 10 ug/ml. How it is done:
(§1) Control, growing IMR-90 or CCL-206 cells were seeded 24h prior to testing day. On testing day, the medium was aspirated, and cells were gently detached using warm TrypLE Express solution (Thermo Fisher Scientific) followed by the addition of cold FACS buffer (PBS/5% FBS). ATP6V1B2 antibodies were added to the tubes containing the cells and the tubes were incubated for 60-70 minutes at 4C and centrifuged. Antibodies 2G05, 2E11 and 4G06 were tested at 10 ug/ml. Commercial antibodies-LS-B13421 (LS Bio), ab200839 (Abcam), and SC-55544 (Santa Cruz) were used at 20 ug/ml. Two hundred fifty ul of secondary antibody (anti mouse Alexa 647, Jackson 115-605-146 diluted in FACS buffer 1:300) were added and the tubes were incubated for 40 minutes at 4 C. Following incubation, 600 ul FACS buffer supplemented with DAPI (diluted 1:20,000) were added to each tube and the tubes were centrifuged. Cell pellets were resuspended in 200 ul FACS buffer. The samples were analyzed using GUAVA Flow Cytometry analyzer. Data was analyzed using the FCSalyzer 0.9.18-alpha software. Duplicates and dead cells (DAPI positive cells) were excluded.
In general terms: Flow cytometry measures light scatter and fluorescence of single cells or particles in a stream.

For assay [2], the target named is T2, mouse ATP6V1B2 on the surface of senescent mouse lung fibroblasts (CCL-206) (mouse, UniProt P62814 1-511).
T2 construct: whole, on cells; Endogenous protein on mouse cells
Description: FACS, non-permeabilized senescent CCL-206 cells, antibody at 10 ug/ml. How it is done:
Surface binding was examined in non-permeabilized cells using FACS. FIG. 4A: antibody 2G05.
as §1

These results are taken from US20250136708A1 (YEDA RESEARCH AND DEVELOPMENT, published 2025).

T2 sequence (P62814 whole entry): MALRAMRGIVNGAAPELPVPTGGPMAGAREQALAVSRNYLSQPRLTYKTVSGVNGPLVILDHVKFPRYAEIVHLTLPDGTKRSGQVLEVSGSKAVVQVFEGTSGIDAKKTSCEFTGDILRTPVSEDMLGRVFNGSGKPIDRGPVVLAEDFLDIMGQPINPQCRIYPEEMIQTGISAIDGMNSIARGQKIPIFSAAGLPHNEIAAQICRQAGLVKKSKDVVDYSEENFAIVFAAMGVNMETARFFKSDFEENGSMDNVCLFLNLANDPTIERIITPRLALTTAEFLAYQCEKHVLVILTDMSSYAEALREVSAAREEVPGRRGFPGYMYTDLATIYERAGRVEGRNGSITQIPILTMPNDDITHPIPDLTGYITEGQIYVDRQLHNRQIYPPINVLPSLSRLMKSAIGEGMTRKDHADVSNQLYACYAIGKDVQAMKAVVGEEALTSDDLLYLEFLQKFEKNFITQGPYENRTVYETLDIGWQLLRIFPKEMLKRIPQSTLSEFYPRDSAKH
T1 sequence (P21281 whole entry): as the sequence (P62814 whole entry) above, with M25A, A26V, K460R, T464A, Y474F counted along it

B1: anti-ATP6V1B2 antibody 2E11 (antibody, V domains shown)
VH: EVQLQQSGAELVKPGASAKMSCRAPGYTFTSYWITWVKQRPGQGLEWIGDIYPGSGSTNYNEKFKTKATLTVDTSSSTAYMQLSSLTSEDSAVYYCAELGTFDYWGQGTTLTVST
VL: DVVVTQTPLSLPVSLGDQASISCRSSQSLVHSNGNTYLHWYLQKPGQSPKLLIYKVSNRFSGVPDRFSGSGSGTDFTLKISRVEAEDLGVYFCSQSTHVPYTFGGGTKLEIK
notes: detection was with an anti-mouse secondary antibody
Turning to B1, the binding result in assay [1] and in assay [2] was “binds” throughout.
